Experimental data: patent US20130261013A1
Primed or numbered codes have the meaning given here. Side chains are listed from the residue outwards. Ends that are not written are not given here. * marks the point of attachment. dT′ = N3-(decanoic acid)-2'-deoxythymidine (dT probe 19), Cc1cn([C@H]2C[C@H](O)[C@@H](CO)O2)c(=O)n(CCCCCCCCCC(=O)*)c1=O; coumarin = 7-methoxycoumarin-3-carboxylic acid, COc1ccc2cc(C(=O)*)c(=O)oc2c1; 25OHVD3 = 25-hydroxyvitamin D3, linked at its carbon 11; Dansyl = CN(C)c1cccc2c(S(=O)(=O)*)cccc12; 8C = 8-carbon spacer; Ahx = NCCCCCC(=O)O; VD3 = vitamin D3

T1: vitamin D binding protein
T1 sequence (P02774 17-474, species assumed, looked up): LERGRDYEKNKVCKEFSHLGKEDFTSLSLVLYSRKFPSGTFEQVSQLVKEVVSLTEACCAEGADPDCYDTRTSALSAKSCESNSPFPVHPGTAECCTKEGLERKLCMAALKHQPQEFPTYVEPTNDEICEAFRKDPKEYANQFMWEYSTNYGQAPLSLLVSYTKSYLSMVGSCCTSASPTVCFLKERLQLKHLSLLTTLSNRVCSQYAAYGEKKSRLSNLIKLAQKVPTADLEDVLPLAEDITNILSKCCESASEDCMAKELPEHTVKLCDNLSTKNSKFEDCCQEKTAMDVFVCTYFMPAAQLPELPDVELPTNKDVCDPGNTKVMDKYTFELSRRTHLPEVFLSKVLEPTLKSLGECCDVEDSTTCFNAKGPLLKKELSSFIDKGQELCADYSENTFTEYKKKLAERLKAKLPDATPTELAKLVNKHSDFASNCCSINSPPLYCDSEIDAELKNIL


Target: thymidine kinase
Experiment: fluorescence screen, 2 µM binder, 2 and 4 µM TK; estimate for 'hits'

Row | Kd | Binder
1 | < 20 nM | Ac-NAADLEAAIRHLAERLAARGPK(dT′)DAK(Dansyl)QLAEQLARAFEAFARAG (designed binder) [3-C25L22-dT]
2 | < 20 nM | Ac-NAADLEAK(dT′)IRHLAEK(Dansyl)LAARGPVDAAQLAEQLARRFEAFARAG (designed binder) [3-C15L8-dT]
3 | < 20 nM | Ac-NAADLEAAIK(Dansyl)HLAEALK(dT′)ARGPVDAAQLAEQLARAFEAFARAG (designed binder) [2-C10L17-dT]
4 | < 20 nM | Ac-NAADLEARIK(Dansyl)HLRERLK(dT′)ARGPRDAAQLAEQLARAFERFARAG (designed binder) [4-C10L17-dT]

Target: T1, vitamin D binding protein
Experiment: SPR (Biacore 2000), DBP immobilized on CM5, 1:1 model

Row | Binder | Kd
5 | Ac-NEADLEAK([8C-25OHVD3])IRHLAEK(Dansyl)LAARGPVDAAQLAEQLARAFEAFARAG (designed binder) [2-C15L8-8C-25OHVD3 (dansyl)] | 480 nM
6 | Ac-NAADLEAK([Ahx-25OHVD3])IRHLAEK(Dansyl)LAARGPVDAAQLAEQLARRFEAFARAG (designed binder) [3-C15L8-6C-25OHVD3 (dansyl)] | 1300 nM
7 | Ac-NAADLEARIK(Dansyl)HLRERLKARGPRDAAQLAEQLARAFERFARAG (designed binder, not fully specified (residue 17)) [4-C10L17-6C-VD3 (dansyl)] | 890 nM
8 | Ac-NAADLEARIK(Dansyl)HLAERLK([8C-25OHVD3])ARGPVDAAQLAEQLARAFEAFARAG (designed binder) [3-C10L17-8C-25OHVD3 (dansyl)] | 1200 nM
9 | Ac-NEADLEAK([8C-25OHVD3])IRHLAEK(Dansyl)LEARGPEDAEQLAEQLARAFEAFARAG (designed binder) [1-C15L8-8C-25OHVD3 (dansyl)] | 290 nM
10 | Ac-NAADLEAK([8C-25OHVD3])IRHLAEK(Dansyl)LAARGPVDAAQLAEQLARRFEAFARAG (designed binder) [3-C15L8-8C-25OHVD3 (dansyl)] | 1100 nM

Further lines, results first:

Row | Kd | Binder
11 | 1800 nM | Ac-NAADLEAKIRHLREK(Dansyl)LAARGPRDAAQLAEQLARRFERFARAG (designed binder, not fully specified (residue 8)) [4-C15L8-6C-VD3 (dansyl)]
12 | 110 nM | Ac-NAADLEAK([8C-25OHVD3])IRHLREK(Dansyl)LAARGPRDAAQLAEQLARRFERFARAG (designed binder, not fully specified (C-terminus)) [4-C15L8-8C-25OHVD3 (dansyl)]
13 | 900 nM | NAADLEARIRHLRERLAARGPRDAAQLAEQLARK([Ahx-VD3])FEK(Dansyl)FARAG (designed binder, not fully specified (N-terminus, C-terminus)) [4-C37L34-6C-VD3 (dansyl)]
14 | 190 nM | NAADLEARIRHLRERLAARGPRDAAQLAEQLARK([Ahx-25OHVD3])FEK(Dansyl)FARAG (designed binder, not fully specified (N-terminus, C-terminus)) [4-C37L34-6C-25OHVD3 (dansyl)]
15 | 750 nM | NAADLEARIRHLRERLAARGPK([Ahx-25OHVD3])DAK(Dansyl)QLAEQLARAFERFARAG (designed binder, not fully specified (N-terminus, C-terminus)) [4-C25L22-6C-25OHVD3 (dansyl)]
16 | 50 nM | Ac-NAADLEAK([Ahx-25OHVD3])IRHLREK(coumarin)LAARGPRDAAQLAEQLARRFERFARAG (designed binder) [4-C15L8-6C-25OHVD3 (coumarin)]
17 | 1300 nM | NAADLEARIRHLRERLAARGPK([Ahx-VD3])DAK(Dansyl)QLAEQLARAFERFARAG (designed binder, not fully specified (N-terminus, C-terminus)) [4-C25L22-6C-VD3 (dansyl)]
